Data from patent US20250034212A1, “PEPTIDE” (PEPTIDREAM INC., priority 2021, published 2025).
Blank lines part the entries; values can stand above or below the molecule they belong to. Starred links: 1 amine or outer side, 2 acyl side, 3 side chain; linkers in the order of their positions; H or OH if unused. Positions of bridges follow the written chain, without caps; N, C: chain ends. Non-standard residues stand in square brackets, D forms with d. Residues, ends and D or L forms follow the SMILES beside them. Groups on a side chain read outwards from the residue. *: point of attachment. KCOmeglumine = N6-(methyl-((2S,3R,4R,5R)-2,3,4,5,6-pentahydroxyhexyl)carbamoyl)-L-lysine, CN(C[C@H](O)[C@@H](O)[C@H](O)[C@H](O)CO)C(=O)NCCCC[C@H](N[*:1])C(=O)[*:2]; KCOpipzaa = N6-(4-(carboxymethyl)piperazine-1-carbonyl)-L-lysine, O=C(NCCCC[C@H](N[*:1])C(=O)[*:2])N1CCN(CC(=O)[*:3])CC1; OCOmPEG10000 = methoxypolyethyleneglycol (10000) carbonate on Lys NZ; Meglumine = CN(C[C@H](O)[C@@H](O)[C@H](O)[C@H](O)CO)*; 1Nal = N[C@@H](Cc1cccc2ccccc12)C(=O)O; Gly(NCH2CH2Ph) = O=C(O)CNCCc1ccccc1; 4Pal = N[C@@H](Cc1ccncc1)C(=O)O; CO = O=C([*:1])[*:2]

Key:
recombinant human TGF-β1 [1] = target: T1, recombinant human TGF-β1 (Homo sapiens, UniProt P01137); test: SPR intermolecular interaction test, TGF-β1 immobilized on CM3 sensor chip (Biacore T200); type: binding; conditions: Single Cycle Kinetics, human TGF-β1
T1 construct: purchased R&D systems
T1 sequence (P01137 279-390 limits assumed): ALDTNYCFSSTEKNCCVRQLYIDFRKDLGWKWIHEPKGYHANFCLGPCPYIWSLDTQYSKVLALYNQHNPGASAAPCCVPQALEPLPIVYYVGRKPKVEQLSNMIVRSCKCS
Protocol: In this Example, (1) the activity of binding to TGF-β for various peptides consisting of the amino acid sequences set forth in SEQ ID NOs: 2-33 synthesized in Examples 1 to 5 and 7 was evaluated. (2) The activity and selectivity of binding of the peptide consisting of the amino acid sequence set forth in SEQ ID NO: 13 synthesized in Example 2 against two isoforms of TGF-β (TGF-β1 and β2) were checked. For this purpose, the intermolecular interaction of each peptide against TGF-β was tested by surface plasmon resonance (SPR) in the method described below. Specific test methods are described below.
A CM3 sensor chip (Global Life Science Technologies Japan Co., Ltd.) was inserted into a BiacoreT200 (Global Life Science Technologies Japan Co., Ltd.). Three priming runs were performed using running buffer: HBS-EP+ (Global Life Science Technologies Japan Co., Ltd.). The system was then equilibrated at a flow rate of 30 μL/min.
(§1) Subsequently, 50 μL of 60 mM EDC solution (Global Life Science Technologies Japan Co., Ltd.) and 50 μL of 650 mM NHS solution (Global Life Science Technologies Japan Co., Ltd.) were mixed. Next, the reaction was carried out at a flow rate of 10 μL/min for 420 seconds. Then, 150 μL of 0.2 μM TGF-β solution diluted in 10 mM acetic acid solution (pH 5.0) was prepared and reacted at a flow rate of 10 μL/min for 420 seconds to immobilize TGF-β on the CM3 sensor chip. TGF-β was human-derived TGF-β1 or β2 (recombinant human TGF-β1, 2) and was obtained from R&D systems. After immobilization, capping was performed by reacting with 1.0 M ethanolamine aqueous solution (Global Life Science Technologies Japan Co., Ltd.) at a flow rate of […] for 420 seconds.
(§2) A liquid prepared by dissolving each peptide at 10 mM in DMSO solution was diluted with running buffer to prepare a peptide-dissolved solution at a final concentration of 10 μM. Subsequently, 50 nM, 25 nM, 12.5 nM, 5 nM, and 2.5 nM peptide solutions were prepared. Using the above samples, the kinetics of each peptide against TGF-β was obtained by SPR measurement.
(§3) The kinetics evaluation model was Single Cycle Kinetics, and curve fitting was performed using Biacore T200 Evaluation Software Version 3.0 (Global Life Science Technologies Japan Co., Ltd.). The binding of various peptides to TGF-β was evaluated by performing least-squares curve fitting on the obtained sensorgram to calculate the KD value.

recombinant human TGF-β1 [2] = target: T1, recombinant human TGF-β1; test: SBE reporter assay in SBE reporter-HEK293 cells, TGF-β1 stimulation; type: cell-based; conditions: TGF-β1 0.13 nM, 18 hours
From the text: The inhibitory activity of the peptide can be calculated without limitation while the maximum signal induced by TGF-β is set to 0% inhibition and no stimulation is set to 100% inhibition. When the peptide is used at an appropriate concentration, for example, at the optimal concentration, the inhibitory activity is not limited but the inhibition is 5% or more, 10% or more, 20% or more, 30% or more, 40% or more, 50% or more, 60% or more, 70% or more, 80% or more, or 90% or more.
In this Example, the TGF-β1 inhibitory activity of the peptide of the present invention consisting of the amino acid sequence set forth in SEQ ID NOs: 2-33 synthesized in Examples 1 to 5 and 7 was evaluated by an SBE reporter assay using the SBE reporter-HEK293 cell system (BP Bioscience) as follows.
SBE reporter-HEK293 cells were cultured in E-MEM (Wako) containing 10% FBS (Sigma). The cells were detached using Accutase (Innovative Cell Technologies), suspended in E-MEM containing 0.5% FBS, seeded onto a 96-well plate(s) at a concentration of 45,000 cells per well, and cultured overnight. The next day, the peptide was added and allowed to stand for 20 min, and recombinant human TGF-β1 (R&D systems) or recombinant human TGF-β2 (R&D systems) was then added at 0.13 nM and cultured for 18 hours.
Thereafter, luciferase assay ONE-Glo reagent was added to each well and the plate was shaken for 5 min. A SpectraMax Paradigm multimode microplate reader (Molecular Devices) was then used for signal detection. The obtained signals were analyzed by GraphPad Prism. The inhibitory activity of the peptide was calculated while the maximum signal induced by TGF-β was set to 0% inhibition and no stimulation was set to 100% inhibition.

[3] = target: T2, recombinant human TGF-β1 (R&D systems) (human, UniProt P01137 279-390); test: cell-based or functional assay
T2 sequence (P01137 279-390 limits assumed): as above

[4] = target: T2, recombinant human TGF-β1 (R&D systems); test: SPR, TGF-β1 immobilised, single cycle kinetics
Protocol: as §1, §2, §3

B2: TGFb1_021 (peptide)
peptide: {CH2CO}-F[1Nal]VVNV[4Pal]DE[Gly(NCH2CH2Ph)]V[1Nal]YH[KCOpipzaa]CG-NH2
modifications: thioether N-16
SMILES: CC(C)[C@@H]1NC(=O)CN(CCc2ccccc2)C(=O)[C@H](CCC(=O)O)NC(=O)[C@H](CC(=O)O)NC(=O)[C@H](Cc2ccncc2)NC(=O)[C@H](C(C)C)NC(=O)[C@H](CC(N)=O)NC(=O)[C@H](C(C)C)NC(=O)[C@H](C(C)C)NC(=O)[C@H](Cc2cccc3ccccc23)NC(=O)[C@H](Cc2ccccc2)NC(=O)CSC[C@@H](C(=O)NCC(N)=O)NC(=O)[C@H](CCCCNC(=O)N2CCN(CC(=O)O)CC2)NC(=O)[C@H](Cc2c[nH]cn2)NC(=O)[C@H](Cc2ccc(O)cc2)NC(=O)[C@H](Cc2cccc3ccccc23)NC1=O
notes: cyclic peptide; C-terminal G is a linker
SBE reporter % inhibition, peptide 0.062 nM [3]: 10.2% | SBE reporter % inhibition, peptide 0.185 nM [3]: 26.9% | SBE reporter % inhibition, peptide 0.56 nM [3]: 58.9% | SBE reporter % inhibition, peptide 1.7 nM [3]: 87.8% | SBE reporter % inhibition, peptide 5.0 nM [3]: 97.1% | SBE reporter % inhibition, peptide 15.0 nM [3]: 98.8% | Kd [4]: 1.37 nM

B3: TGFb1_029 (peptide)
peptide: {CH2CO}-F[1Nal]V[KCOmeglumine]NV[4Pal]DE[Gly(NCH2CH2Ph)]V[1Nal]YHECG-NH2
modifications: thioether N-16
SMILES: CC(C)[C@@H]1NC(=O)CN(CCc2ccccc2)C(=O)[C@H](CCC(=O)O)NC(=O)[C@H](CC(=O)O)NC(=O)[C@H](Cc2ccncc2)NC(=O)[C@H](C(C)C)NC(=O)[C@H](CC(N)=O)NC(=O)[C@H](CCCCNC(=O)N(C)C[C@H](O)[C@@H](O)[C@H](O)[C@H](O)CO)NC(=O)[C@H](C(C)C)NC(=O)[C@H](Cc2cccc3ccccc23)NC(=O)[C@H](Cc2ccccc2)NC(=O)CSC[C@@H](C(=O)NCC(N)=O)NC(=O)[C@H](CCC(=O)O)NC(=O)[C@H](Cc2c[nH]cn2)NC(=O)[C@H](Cc2ccc(O)cc2)NC(=O)[C@H](Cc2cccc3ccccc23)NC1=O
notes: as for B2
SBE reporter % inhibition, peptide 0.062 nM [3]: 12% | SBE reporter % inhibition, peptide 0.185 nM [3]: 16.9% | SBE reporter % inhibition, peptide 0.56 nM [3]: 32.4% | SBE reporter % inhibition, peptide 1.7 nM [3]: 63.7% | SBE reporter % inhibition, peptide 5.0 nM [3]: 85.8% | SBE reporter % inhibition, peptide 15.0 nM [3]: 96.8% | Kd [4]: 0.94 nM

Results, then the molecule that gave them:

Kd (recombinant human TGF-β1 [1]): 1.13 nM | inhibition at 62 pM (recombinant human TGF-β1 [2]; peptide 0.062 nM): 10.9% | inhibition at 0.000185 µM (recombinant human TGF-β1 [2]; peptide 0.185 nM): 14.3% | inhibition at 0.00056 µM (recombinant human TGF-β1 [2]; peptide 0.56 nM): 29.9% | inhibition at 0.0017 µM (recombinant human TGF-β1 [2]; peptide 1.7 nM): 52.5% | inhibition at 0.005 µM (recombinant human TGF-β1 [2]; peptide 5.0 nM): 80.8% | inhibition at 0.015 µM (recombinant human TGF-β1 [2]; peptide 15.0 nM): 95.2%
Molecule: CC(C)[C@@H]1NC(=O)CN(CCc2ccccc2)C(=O)[C@H](CCCCNC(=O)N(C)C[C@H](O)[C@@H](O)[C@H](O)[C@H](O)CO)NC(=O)[C@H](CC(=O)O)NC(=O)[C@H](Cc2ccncc2)NC(=O)[C@H](C(C)C)NC(=O)[C@H](CC(N)=O)NC(=O)[C@H](CCCCNC(=O)N(C)C[C@H](O)[C@@H](O)[C@H](O)[C@H](O)CO)NC(=O)[C@H](C(C)C)NC(=O)[C@H](Cc2cccc3ccccc23)NC(=O)[C@H](Cc2ccccc2)NC(=O)CSC[C@@H](C(=O)NCC(N)=O)NC(=O)[C@H](CCC(=O)O)NC(=O)[C@H](Cc2c[nH]cn2)NC(=O)[C@H](Cc2ccc(O)cc2)NC(=O)[C@H](Cc2cccc3ccccc23)NC1=O [TGFb1_030] ({CH2CO}-F[1Nal]VK([CO-Meglumine])NV[4Pal]DK([CO-Meglumine])[Gly(NCH2CH2Ph)]V[1Nal]YHECG-NH2; thioether N-16)

SBE reporter % inhibition, peptide 0.062 nM [3]: 2.67% | SBE reporter % inhibition, peptide 0.185 nM [3]: 7.18% | SBE reporter % inhibition, peptide 0.56 nM [3]: 1.11% | SBE reporter % inhibition, peptide 1.7 nM [3]: 4.77% | SBE reporter % inhibition, peptide 5.0 nM [3]: 54% | SBE reporter % inhibition, peptide 15.0 nM [3]: 91.3% | Kd [4]: 3.08 nM
B1: TGFb1_032 (peptide)
peptide: {CH2CO}-F[1Nal]VVNV[4Pal]DD[Gly(NCH2CH2Ph)]V[1Nal]YH[KCOpipzaa]CGK(OCOmPEG10000)-NH2
modifications: thioether N-16
notes: cyclic peptide; linker G K(OCOmPEG10000) at the C-terminus
